Measurements: patent US20090226428A1 (CEPHALON AUSTRALIA, published 2009)
Substitutions are numbered along the chain they refer to.

B1: Compound 100 (other)
VL: DIQMTQSPSSLSASVGDRVTITCRASQSIDSYLHWYQQKPGKAPKLLIYSASNLETGVPSRFSGSGSGTDFTLTISSLLPEDFATYYCQQVVWRPFTFGQGTKVEIKR
B2: Compound 123 (other)
VL: B1 VL with S28A, L79Q
B3: Acceptor dAb (Compound 128) (other)
VL: B1 VL with N53E, E55Q, T56S, L79Q
notes: also called acceptor variable region (anti-TNF domain antibody)
B4: Compound 145 (marmoset CDR-grafted dAb) (other)
VL: B1 VL with L79Q
notes: also called parent dAb

Columns and labels:
[1] = target: T1, human TNF-α (human, UniProt P01375 77-233); experiment: cell-based or functional assay
[2] = target: T1, human TNF-α; experiment: receptor binding assay (ELISA): dAb mixed with TNF (10 ng/ml), binding of TNF to captured TNF receptor 1 Fc fusion protein detected; blocked partner TNF receptor 1-Fc
Description: dAbs diversified in the 14 selected positions were tested for the ability to inhibit the binding of TNF to recombinant TNF receptor 1 (p55). Briefly, Maxisorp plates were incubated overnight with […] anti-human Fc mouse monoclonal antibody (Zymed, San Francisco, USA). The wells were washed with phosphate buffered saline (PBS) containing 0.05% Tween-20 and then blocked with 1% BSA in PBS before being incubated with 100 ng/ml TNF receptor 1 Fc fusion protein (R&D Systems, Minneapolis, USA). Each dAb was mixed with TNF which was added to the washed wells at a final concentration of 10 ng/ml. TNF binding was detected with 0.2 mg/ml biotinylated anti-TNF antibody (HyCult biotechnology, Uben, Netherlands) followed by 1 in 500 dilution of horse radish peroxidase labelled streptavidin (Amersham Biosciences, UK) and then incubation with TMB substrate (KPL, Gaithersburg, USA). The reaction was stopped by the addition of HCl and the absorbance was read at 450 nm. Anti-TNF dAb activity lead to a decrease in TNF binding and therefore a decrease in absorbance compared with the TNF only control (FIG. 5).

T1 sequence (P01375 77-233 limits assumed): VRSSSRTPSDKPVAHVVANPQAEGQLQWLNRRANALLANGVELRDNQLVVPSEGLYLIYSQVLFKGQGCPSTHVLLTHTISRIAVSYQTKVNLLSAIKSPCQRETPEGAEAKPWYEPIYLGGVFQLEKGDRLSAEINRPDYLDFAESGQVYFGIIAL

Binder | EC50 (read off the curve); L929 cytotoxicity assay, cell viability (% control) [1] | IC50 (read off the curve) [2]
B1 | ~50 nM | 
B2 | ~50 nM | 
B3 |  | ~30 nM
B4 |  | ~30 nM
